From IntAct's records for PubMed 28965847

B1: Suppressor of fused homolog (Homo sapiens), Q9UMX1 (parent)
chain: MAELRPSGAPGPTAPPAPGPTAPPAFASLFPPGLHAIYGECRRLYPDQPNPLQVTAIVKYWLGGPDPLDYVSMYRNVGSPSANIPEHWHYISFGLSDLYGDNRVHEFTGTDGPSGFGFELTFRLKRETGESAPPTWPAELMQGLARYVFQSENTFCSGDHVSWHSPLDNSESRIQHMLLTEDPQMQPVQTPFGVVTFLQIVGVCTEELHSAQQWNGQGILELLRTVPIAGGPWLITDMRRGETIFEIDPHLQERVDKGIETDGSNLSGVSAKCAWDDLSRPPEDDEDSRSICIGTQPRRLSGKDTEQIRETLRRGLEINSKPVLPPINPQRQNGLAHDRAPSRKDSLESDSSTAIIPHELIRTRQLESVHLKFNQESGALIPLCLRGRLLHGRHFTYKSITGDMAITFVSTGVEGAFATEEHPYAAHGPWLQILLTEEFVEKMLEDLEDLTSPEEFKLPKEYSWPEKKLKVSILPDVVFDSPLH

Variants of: B1
Conditions: with gli3_mouse Gli3, Q61602
Chain of gli3_mouse Gli3, Q61602 (Q61602 whole entry): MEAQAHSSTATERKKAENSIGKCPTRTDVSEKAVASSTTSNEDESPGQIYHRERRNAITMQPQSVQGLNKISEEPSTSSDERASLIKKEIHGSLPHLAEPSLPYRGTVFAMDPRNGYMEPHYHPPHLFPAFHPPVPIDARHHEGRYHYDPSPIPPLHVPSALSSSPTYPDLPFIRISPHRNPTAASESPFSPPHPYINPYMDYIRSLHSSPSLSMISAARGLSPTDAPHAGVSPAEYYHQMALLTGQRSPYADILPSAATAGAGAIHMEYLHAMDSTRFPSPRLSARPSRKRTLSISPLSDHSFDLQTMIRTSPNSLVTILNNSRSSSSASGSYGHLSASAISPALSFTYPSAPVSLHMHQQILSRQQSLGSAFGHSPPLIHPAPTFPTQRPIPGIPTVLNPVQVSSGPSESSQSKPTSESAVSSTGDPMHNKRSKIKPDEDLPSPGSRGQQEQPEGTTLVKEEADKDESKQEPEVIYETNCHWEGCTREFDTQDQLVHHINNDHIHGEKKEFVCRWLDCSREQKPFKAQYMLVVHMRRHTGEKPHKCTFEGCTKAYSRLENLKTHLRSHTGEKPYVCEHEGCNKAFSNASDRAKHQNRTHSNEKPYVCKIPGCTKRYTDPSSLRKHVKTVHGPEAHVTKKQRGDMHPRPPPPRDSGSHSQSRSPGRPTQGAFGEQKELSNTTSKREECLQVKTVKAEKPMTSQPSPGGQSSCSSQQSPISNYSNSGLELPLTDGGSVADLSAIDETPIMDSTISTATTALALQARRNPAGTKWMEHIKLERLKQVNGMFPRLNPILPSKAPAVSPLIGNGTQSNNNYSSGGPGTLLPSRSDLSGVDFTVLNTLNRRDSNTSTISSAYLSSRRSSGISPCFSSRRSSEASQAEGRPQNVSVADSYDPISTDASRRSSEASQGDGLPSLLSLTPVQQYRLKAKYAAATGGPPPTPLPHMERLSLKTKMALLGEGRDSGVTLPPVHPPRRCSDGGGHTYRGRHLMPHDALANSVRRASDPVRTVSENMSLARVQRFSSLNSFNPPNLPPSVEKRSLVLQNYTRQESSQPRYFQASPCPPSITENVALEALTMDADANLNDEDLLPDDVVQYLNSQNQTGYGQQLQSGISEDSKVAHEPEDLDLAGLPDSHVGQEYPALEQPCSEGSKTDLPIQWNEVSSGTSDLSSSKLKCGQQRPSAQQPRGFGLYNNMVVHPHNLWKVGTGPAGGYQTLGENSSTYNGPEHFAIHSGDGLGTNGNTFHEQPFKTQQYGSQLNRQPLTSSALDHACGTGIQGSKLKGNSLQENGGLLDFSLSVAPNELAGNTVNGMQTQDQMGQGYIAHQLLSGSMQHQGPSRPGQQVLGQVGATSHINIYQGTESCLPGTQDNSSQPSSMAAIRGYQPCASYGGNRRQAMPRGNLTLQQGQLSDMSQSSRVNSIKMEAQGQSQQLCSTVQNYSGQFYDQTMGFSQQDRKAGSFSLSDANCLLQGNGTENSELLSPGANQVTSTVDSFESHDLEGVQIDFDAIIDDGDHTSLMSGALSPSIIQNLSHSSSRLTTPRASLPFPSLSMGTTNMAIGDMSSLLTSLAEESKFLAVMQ

effect of a mutation on the interaction | Variant
disrupting interaction strength | I406T
decreasing interaction strength | H176R
